Data set [1] concerns the target StbA of plasmid R388, full length, C-terminally (His)6-tagged (enterobacterial plasmid R388). Description: SEC. In general terms: SEC sorts molecules by how far they enter the pores of the column.
For data set [2], the target named is T1, StbA1-75 (Escherichia coli plasmid R388, UniProt Q6I6C4 1-75).
T1 sequence: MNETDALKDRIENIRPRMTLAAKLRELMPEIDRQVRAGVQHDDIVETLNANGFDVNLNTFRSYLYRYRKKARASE
As to the kind of experiment: EMSA. In general terms: In EMSA bound probe runs differently from free probe, usually more slowly.

In data set [3] the target is T2, StbA (Escherichia coli plasmid R388, UniProt Q6I6C4 1-141).
T2 sequence: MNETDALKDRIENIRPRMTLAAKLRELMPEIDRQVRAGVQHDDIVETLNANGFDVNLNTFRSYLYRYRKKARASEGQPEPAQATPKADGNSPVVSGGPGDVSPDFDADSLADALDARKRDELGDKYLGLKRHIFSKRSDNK
Description: EMSA.

Data set [4] deals with T2, StbA. As to the kind of experiment: EMSA. This is another data set of the same source.
For data set [5], the target named is T1, StbA1-75. Description: EMSA. The source holds these as a separate data set.
Data set [6] concerns the target T2, StbA. Description: EMSA. This is another data set of the same source.
The target of data set [7] is T2, StbA. Description: EMSA. The source holds these as a separate data set.
In data set [8] the target is T2, StbA. Description: EMSA. The source holds these as a separate data set.
For data set [9], the target named is T1, StbA1-75. As to the kind of experiment: EMSA. This is another data set of the same source.
The target of data set [10] is T2, StbA. Description: EMSA. The source holds these as a separate data set.

Read-outs that look alike come from different tables or passages of the source.

What is called stoichiometry N is the number of molecules, sites or subunits per partner or assembly. Consider “StbA of plasmid R388, full length, C-terminally (His)6-tagged (natural protein)”, for which, in [1], the stoichiometry N amounted to 2.

B1: stb5a (dsDNA)
DNA 1: CCGTTTTAGCTCATTTTCTGCATCATTGTAGCACCATCATAGCATTATAGTTGCATCATTGCTGCACGATAACCCAATGC
DNA 2: GCATTGGGTTATCGTGCAGCAATGATGCAACTATAATGCTATGATGGTGCTACAATGATGCAGAAAATGAGCTAAAACGG
For B1, the binding result with StbA1-75 [2] and with StbA [3] was “binds” each time.

B2: stb5b (dsDNA)
DNA 1: TTGCCTGCATCATAGCTGTCCTATGACTGCATCACATTTGCATCATACATGCATTATTTC
DNA 2: GAAATAATGCATGTATGATGCAAATGTGATGCAGTCATAGGACAGCTATGATGCAGGCAA
Take B2: the binding result with StbA [4] is “binds”.

B3: stb2 (dsDNA)
DNA 1: CCGTTCTAGCTCATTCTGTTCTTGCTTGCTGCATCATCACTGCATCATCCCAATGCCGATCTAGCTCATTACTGTTCTAT
DNA 2: ATAGAACAGTAATGAGCTAGATCGGCATTGGGATGATGCAGTGATGATGCAGCAAGCAAGAACAGAATGAGCTAGAACGG
Take B3: the binding result with StbA1-75 [5] and with StbA [6] was “binds” throughout.

B4: stb5 (dsDNA)
DNA 1: TCTGTTCTTGCTTGCTGCATCATCACTGCATCATCACTGCATCATCACTGCATCATCACTGCATCATATGCCGATCTAGC
DNA 2: GCTAGATCGGCATATGATGCAGTGATGATGCAGTGATGATGCAGTGATGATGCAGTGATGATGCAGCAAGCAAGAACAGA
Consider B4, for which the binding result with StbA [7] is recorded as “binds”.

B5: stb0 (dsDNA)
DNA 1: CCTTAAACGGCCTATTGTTTCCAAGCGGAGTGACAACAAATGAAAGTAGCTGTGCTTAAGTATTCAACAAAGCCGCCGTC
DNA 2: GACGGCGGCTTTGTTGAATACTTAAGCACAGCTACTTTCATTTGTTGTCACTCCGCTTGGAAACAATAGGCCGTTTAAGG
In the case of B5, the binding result with StbA [8] is on record as “no binding”.

B6: stb3 (dsDNA)
DNA 1: TAGCTCATTCTGTTCTTGCTTGCTGCATCATCACTGCATCATAGCTGCATCATCAATGCCGATCTAGCTCATTACTGTTC
DNA 2: GAACAGTAATGAGCTAGATCGGCATTGATGATGCAGCTATGATGCAGTGATGATGCAGCAAGCAAGAACAGAATGAGCTA
Take B6: the binding result in the data set with StbA1-75 [9] and in the data set with StbA [10] was “binds” each time.

The record behind these values is paper doi:10.1101/2022.04.29.490116.
